Results published in the supplement of paper PMC9732359.
± gives the uncertainty stated by the source.

Experiment: protein stability index of a GFP-peptide fusion (yeast GPS) (PSI 1-4); higher = more stable; sorted into four equal gates, so the index is relative within each strain
In short: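 Tiled 17-residue yeast protein peptides were fused downstream of GFP in a plasmid that also expresses Cherry, and the pooled library was carried in yeast. Mid-log cultures in leucine-free medium were sorted into four equal gates by GFP/Cherry fluorescence ratio, and plasmids from each gate were PCR-amplified and Illumina-sequenced, with reads assigned to strains by barcodes. The protein stability index for each peptide was each gate's read frequency times its gate number, summed.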

Row | Sequence | protein stability index (doa10∆) | protein stability index (pdr5∆) | protein stability index (san1∆) | protein stability index (ubr1∆)
1 | HGHLGFLPRKRAASIRA [RPL3] | 2.1 ± 0.086 | 2.44 ± 0.067 | 2.79 ± 0.055 | 2.2 ± 0.077
2 | RSKNLIFNGETLEDALR [GRR1] | 2.92 ± 0.093 | 2.58 ± 0.054 | 2.65 ± 0.057 | 2.77 ± 0.07
3 | PLSNEVFEISENNSDSN [SWI1] | 3 ± 0.063 | 3.04 ± 0.068 | 2.84 ± 0.084 | 2.98 ± 0.058
4 | VITALKEPPRDRKKDKN [RPL12A] | 2.48 ± 0.08 | 2.61 ± 0.12 | 2.37 ± 0.1 | 1.85 ± 0.063
5 | ESGSTPISISNAPTFNP [YAR002W/NUP60] | 2.25 ± 0.067 | 2.64 ± 0.061 | 1.98 ± 0.077 | 2.63 ± 0.058
6 | SMVYSNVGELIEKNVME [RRP4] | 2.06 ± 0.052 | 2.66 ± 0.053 | 2.55 ± 0.056 | 2.03 ± 0.048
7 | PQGRQSTTFADCPVVPA [RPC40] | 2.89 ± 0.067 | 2.92 ± 0.078 | 2.49 ± 0.1 | 2.87 ± 0.059
8 | NLSSLIVEINNVSNTFN [YJL041W/NSP1] | 2.45 ± 0.043 | 2.72 ± 0.046 | 2.62 ± 0.04 | 2.58 ± 0.032
9 | ELVDMAGAGEANGTVVS [MTR3] | 2.98 ± 0.12 | 3.11 ± 0.14 | – | 3.05 ± 0.087
10 | MSLQHEKVTIAPLVLLS [RPN8] | 1.19 ± 0.035 | 1.28 ± 0.032 | 1.2 ± 0.068 | 1.21 ± 0.031
11 | YDSRTTIFSPEGRLYQV [PRE9] | 3.02 ± 0.1 | 3.31 ± 0.075 | 2.97 ± 0.078 | 3.09 ± 0.063
12 | IITQYVFESLEINNLIQ [ARP9] | 3.2 ± 0.098 | 2.93 ± 0.081 | 2.8 ± 0.12 | 2.96 ± 0.1
13 | KKHTKKFKRHHSDRYHR [RPL32] | 2.88 ± 0.038 | 2.99 ± 0.034 | 2.87 ± 0.029 | 2.971 ± 0.025
14 | VFLKHSLSIKLATLHYQ [RPN6] | 2.22 ± 0.059 | 2.57 ± 0.067 | 1.71 ± 0.11 | 3.08 ± 0.055
15 | ILEVGALASIQTFNFDS [RPN12] | 2.31 ± 0.095 | 2.65 ± 0.18 | 2.96 ± 0.17 | 2.86 ± 0.077
16 | KNPHDIIEGINAGEIEI [RPL12A] | 2.66 ± 0.075 | 2.44 ± 0.075 | 2.22 ± 0.096 | 2.34 ± 0.06
17 | AVHNGGRKHVAALRTVK [RPL9A] | – | – | – | 2.88 ± 0.19
18 | DKLSGCYAPRPSAGPHK [RPS4A] | 2.2 ± 0.065 | 1.96 ± 0.063 | 1.76 ± 0.099 | 1.64 ± 0.041
19 | VNTMGTGGQTIDNGTGR [MED6] | 3.27 ± 0.14 | 3.06 ± 0.24 | 3.19 ± 0.077 | 3.19 ± 0.073
20 | KIRELEAELSSTKVENS [YIL149C/MLP2] | 2.79 ± 0.13 | 3.12 ± 0.099 | 3.23 ± 0.089 | 3.12 ± 0.064
21 | LVLNKSSIDRGFGRCET [RET1] | 3.03 ± 0.28 | 3.11 ± 0.23 | 2.76 ± 0.12 | –
22 | LLSKKHGQLKLSIQYMI [RPN5] | 1.43 ± 0.046 | 1.96 ± 0.053 | 1.36 ± 0.094 | 1.65 ± 0.053
23 | YRRALQSSESFDDSDIT [YML103C/NUP188] | 1.89 ± 0.056 | 2.36 ± 0.059 | 2.16 ± 0.058 | 2.46 ± 0.047
24 | RVIKDFKKLNSKNMSKS [YMR153W/NUP53] | 1.95 ± 0.16 | – | 2.64 ± 0.21 | –
25 | IEEHPTVVDAIDNSDEI [IRR1] | 3.35 ± 0.13 | 3.12 ± 0.076 | 3.38 ± 0.069 | 3.1 ± 0.06
26 | PLQNNLPELWALLNFVL [SNF2] | 2.69 ± 0.051 | 2.64 ± 0.045 | 2.56 ± 0.057 | 2.46 ± 0.037
27 | MLKQHLFKYQGHIGAYL [PUP1] | 2.17 ± 0.064 | 2.34 ± 0.063 | 2.25 ± 0.092 | 2.25 ± 0.071

Row | Sequence | protein stability index (doa10∆) | protein stability index (pdr5∆) | protein stability index (san1∆) | protein stability index (ubr1∆)
28 | SDWNPQADLQAMDRAHR [ISW2] | 2.93 ± 0.16 | 3.23 ± 0.12 | 3.14 ± 0.11 | 3.39 ± 0.18
29 | LPVKEFQIIDTLLPGLQ [RPS2] | 2.35 ± 0.15 | 1.83 ± 0.059 | 1.95 ± 0.089 | 1.5 ± 0.063
30 | KLQGLYENIPIYATFLN [YDL116W/NUP84] | 1.32 ± 0.063 | 1.25 ± 0.058 | 1.22 ± 0.14 | 1.13 ± 0.059
31 | EIRAKEYKTSSDSLGPD [SRB2] | 2.81 ± 0.087 | 2.87 ± 0.058 | 3.04 ± 0.053 | 2.98 ± 0.06
32 | ITIFSPEGRLYQVEYAF [SCL1] | 2.58 ± 0.15 | 2.6 ± 0.11 | 2.1 ± 0.092 | 2.37 ± 0.068
33 | FDPFQAVSRSMTDIWNT [ECM29] | 2.81 ± 0.087 | 2.73 ± 0.07 | 2.85 ± 0.062 | 2.75 ± 0.071
34 | PLPHRVQKSTKTFSYKR [RPL20A] | 2.39 ± 0.058 | 2.93 ± 0.051 | 2.63 ± 0.057 | 2.38 ± 0.043
35 | STANPNIKLLNNRMGSY [POP1] | 3.01 ± 0.086 | 3.16 ± 0.083 | 2.56 ± 0.088 | 3.04 ± 0.052
36 | SIYKYIHLNELLTNDES [SNF12] | 2.54 ± 0.063 | 2.71 ± 0.053 | 2.19 ± 0.071 | 2.63 ± 0.084
37 | RLERRINLTKVTQKDIC [CSI1] | 2.88 ± 0.079 | 2.82 ± 0.13 | 3.18 ± 0.065 | 3.29 ± 0.12
38 | AVEQRKKEKLDSGEVDA [DPB4] | 3.2 ± 0.23 | 3.21 ± 0.17 | 3.36 ± 0.1 | 3.27 ± 0.1
39 | AADTSIVEQDKSMELFY [YJL039C/NUP192] | 2.07 ± 0.11 | 2.61 ± 0.13 | 2.63 ± 0.084 | 2.73 ± 0.2
40 | NDIFERIATEASKLAAY [HTB1] | 1.93 ± 0.23 | 1.34 ± 0.11 | 1.19 ± 0.17 | 1.34 ± 0.24
41 | GRNIGHPIIQDKEGNGV [RPB3] | 3.52 ± 0.17 | 3.24 ± 0.13 | 3.04 ± 0.1 | 3.15 ± 0.13
42 | ELNVEKLNTFNLQTFTH [SRP72] | 2.48 ± 0.2 | 2.33 ± 0.15 | 1.9 ± 0.13 | 2.42 ± 0.15
43 | PPETKLPYPTYWSDKKA [SNF5] | 2.91 ± 0.085 | 2.82 ± 0.062 | 3.15 ± 0.056 | 2.86 ± 0.053
44 | INIQSFKDVEHISFNFS [BRR2] | 2.67 ± 0.081 | 2.79 ± 0.13 | 2.67 ± 0.092 | 2.75 ± 0.061
45 | VTEANIIKLVEGLANDP [RPS12] | 2.51 ± 0.12 | 2.76 ± 0.073 | 2.67 ± 0.085 | 2.73 ± 0.073
46 | VDASPNDVTRRTVKNIL [CSL4] | 3.19 ± 0.085 | 3.18 ± 0.085 | 3.1 ± 0.078 | 3.3 ± 0.063
47 | KIMNVTTDSLTKVLQAD [YMR129W/POM152] | 3.25 ± 0.068 | 3.05 ± 0.068 | 3.12 ± 0.04 | 3.23 ± 0.064
48 | IDIQTQDLNQRFQDPYV [RRI1] | – | 2.86 ± 0.18 | 2.28 ± 0.22 | –
49 | AGLEITSDNLLTITKAA [RPP1B] | 2.42 ± 0.051 | 2.55 ± 0.048 | 2.78 ± 0.064 | 2.65 ± 0.046
50 | NVLFLRLFNNVKIHSQE [SRP72] | 2.18 ± 0.049 | 2.06 ± 0.04 | 1.66 ± 0.061 | 2.08 ± 0.036
51 | EIDHQEYSPEILQIREE [RRP6] | 3.19 ± 0.067 | 3.06 ± 0.069 | 3.21 ± 0.094 | 3.18 ± 0.048
52 | DNIDEKVVKAIRIYFTE [NUT1] | 3.12 ± 0.092 | 3 ± 0.061 | 3.04 ± 0.048 | 2.39 ± 0.036
53 | VLNEDDLAFGGEANKHH [RPN5] | 3.25 ± 0.09 | 3.13 ± 0.089 | 3.25 ± 0.057 | 3.48 ± 0.12
